Key:
Assay in all cases: cell-based or functional assay
[1] = target: SARS-CoV-2 spike (S) protein, variant B.1.429 (SARS-CoV-2)
[2] = target: SARS-CoV-2 spike (S) protein, variant B.1.526 (SARS-CoV-2)
[3] = target: SARS-CoV-2 spike (S) protein, variant B.1.351 (SARS-CoV-2)
[4] = target: SARS-CoV-2 spike (S) protein, variant XBB (SARS-CoV-2)
[5] = target: SARS-CoV-2 spike (S) protein, variant XBB.2.3.2 (SARS-CoV-2)
[6] = target: SARS-CoV-2 spike (S) protein, variant KP.3.1.1 (SARS-CoV-2) (UniProt P0DTC2)
[7] = target: SARS-CoV-2 spike (S) protein, variant XBB.1.16.6 (SARS-CoV-2)
[8] = target: SARS-CoV-2 spike (S) protein, variant BA.1 (SARS-CoV-2)
[9] = target: SARS-CoV-2 spike (S) protein, variant KP.2 (SARS-CoV-2) (UniProt P0DTC2)
[10] = target: SARS-CoV-2 spike (S) protein, variant B.1.617.1 (SARS-CoV-2)
[11] = target: SARS-CoV-2 spike (S) protein, variant JD.1.1 (SARS-CoV-2)
[12] = target: SARS-CoV-2 spike (S) protein, variant JN.1 (SARS-CoV-2) (UniProt P0DTC2)
[13] = target: SARS-CoV-2 spike (S) protein, variant CH.1.1 (SARS-CoV-2) (UniProt P0DTC2)
[14] = target: SARS-CoV-2 spike protein, variant KP.2 (SARS-CoV-2)
[15] = target: SARS-CoV-2 spike (S) protein, variant KP.3 (SARS-CoV-2) (UniProt P0DTC2)
[16] = target: SARS-CoV-2 spike protein, variant KP.3 (SARS-CoV-2)
[17] = target: SARS-CoV-2 spike (S) protein, variant JN.1 (SARS-CoV-2)
[18] = target: SARS-CoV-2 spike (S) protein, variant B.1.621 (SARS-CoV-2)
[19] = target: SARS-CoV-2 spike (S) protein, variant BA.2.86 (SARS-CoV-2) (UniProt P0DTC2)
[20] = target: SARS-CoV-2 spike (S) protein, variant B.1.427 (SARS-CoV-2)
[21] = target: SARS-CoV-2 spike (S) protein, variant B.1.525 (SARS-CoV-2)
[22] = target: SARS-CoV-2 spike (S) protein, variant BA.4/5 (SARS-CoV-2)
[23] = target: SARS-CoV-2 spike (S) protein, variant P.1 (SARS-CoV-2)
[24] = target: SARS-CoV-2 spike (S) protein, variant EG.5.1 (SARS-CoV-2) (UniProt P0DTC2)
[25] = target: SARS-CoV-2 spike (S) protein, variant B.1.1.7 (SARS-CoV-2)
[26] = target: SARS-CoV-2 spike (S) protein, variant P.2 (SARS-CoV-2)
[27] = target: SARS-CoV-2 spike (S) protein, variant XBB.1.5 (SARS-CoV-2)
[28] = target: SARS-CoV-2 spike (S) protein, variant LB.1 (SARS-CoV-2) (UniProt P0DTC2)
[29] = target: SARS-CoV-2 spike (S) protein, variant KP.2.3 (SARS-CoV-2) (UniProt P0DTC2)
[30] = target: SARS-CoV-2 spike (S) protein, variant CH.1.1 (SARS-CoV-2)
[31] = target: SARS-CoV-2 spike (S) protein, variant EG.5.1 (SARS-CoV-2)
[32] = target: SARS-CoV-2 spike (S) protein, variant B.1.617.2 (SARS-CoV-2)
[33] = target: SARS-CoV-2 spike (S) protein, variant BA.2.86 (SARS-CoV-2)
[34] = target: SARS-CoV-2 spike (S) protein, variant XEC (SARS-CoV-2) (UniProt P0DTC2)
[35] = target: SARS-CoV-2 spike (S) protein, D614G (SARS-CoV-2) (UniProt P0DTC2)

ADG20 (antibody) showed a neutralization IC50 [1] of 0.014 nM, a neutralization IC80 [1] of 0.061 nM and a neutralizing activity IC50 [2] of 0.019 nM. It also gave a neutralizing activity IC80 [2] of 0.081 nM, a neutralization IC50 [3] of 0.011 nM and a neutralization IC80 [3] of 0.05 nM. It also gave a neutralizing activity IC50 [4] of 10.6 nM, a neutralizing activity IC80 [4] of over 67 nM and a neutralizing activity IC50 [5] of over 67 nM. For the same substance, the neutralizing activity IC80 [5] was over 67 nM, the neutralizing activity IC50 (µg/ml (caption; values match nM)) [6] was over 67 and the neutralizing activity IC80 (µg/ml (caption; values match nM)) [6] was over 67. The neutralizing activity IC50 [7] was over 67 nM, the neutralizing activity IC80 [7] was over 67 nM and the neutralizing activity IC50 [8] was 13.9 nM. The neutralizing activity IC80 [8] was over 67 nM, the neutralizing activity IC50 (µg/ml (caption; values match nM)) [9] was over 67 and the neutralizing activity IC80 (µg/ml (caption; values match nM)) [9] was over 67. For the same substance, the neutralization IC50 [10] was 0.015 nM, the neutralization IC80 [10] was 0.071 nM and the pseudovirus neutralization IC50 [11] was over 67 nM. It also gave a pseudovirus neutralization IC80 [11] of over 67 nM, a neutralizing activity IC50 (µg/ml (caption; values match nM)) [12] of over 67 and a neutralizing activity IC80 (µg/ml (caption; values match nM)) [12] of over 67. The neutralizing activity IC50 (µg/ml (caption; values match nM)) [13] was 13.7, the neutralizing activity IC80 (µg/ml (caption; values match nM)) [13] was over 67 and the IC50 (nM), pseudovirus neutralization [14] was over 67 nM. For the same substance, the neutralizing activity IC50 (µg/ml (caption; values match nM)) [15] was over 67, the neutralizing activity IC80 (µg/ml (caption; values match nM)) [15] was over 67 and the IC50 (nM), pseudovirus neutralization [16] was over 67 nM. It also gave a pseudovirus neutralization IC50 [17] of over 67 nM, a pseudovirus neutralization IC80 [17] of over 67 nM and a neutralizing activity IC50 [18] of 0.026 nM. The neutralizing activity IC80 [18] was 0.131 nM, the neutralizing activity IC50 (µg/ml (caption; values match nM)) [19] was over 67 and the neutralizing activity IC80 (µg/ml (caption; values match nM)) [19] was over 67. It also gave a neutralization IC50 [20] of 0.072 nM, a neutralization IC80 [20] of 0.162 nM and a neutralizing activity IC50 [21] of 0.019 nM. The neutralizing activity IC80 [21] was 0.101 nM, the neutralizing activity IC50 [22] was over 67 nM and the neutralizing activity IC80 [22] was over 67 nM. The neutralizing activity IC50 [23] was 0.021 nM, the neutralizing activity IC80 [23] was 0.117 nM and the neutralizing activity IC50 (µg/ml (caption; values match nM)) [24] was over 67. For the same substance, the neutralizing activity IC80 (µg/ml (caption; values match nM)) [24] was over 67, the neutralization IC50 [25] was 0.106 nM and the neutralization IC80 [25] was 0.424 nM. The neutralization IC50 [26] was 0.034 nM, the neutralization IC80 [26] was 0.121 nM and the neutralizing activity IC50 [27] was over 67 nM. It also gave a neutralizing activity IC80 [27] of over 67 nM, a neutralizing activity IC50 (µg/ml (caption; values match nM)) [28] of over 67 and a neutralizing activity IC80 (µg/ml (caption; values match nM)) [28] of over 67. The neutralizing activity IC50 (µg/ml (caption; values match nM)) [29] was over 67, the neutralizing activity IC80 (µg/ml (caption; values match nM)) [29] was over 67 and the neutralizing activity IC50 [30] was 13.7 nM. The neutralizing activity IC80 [30] was over 67 nM, the pseudovirus neutralization IC50 [31] was over 67 nM and the pseudovirus neutralization IC80 [31] was over 67 nM. For the same substance, the neutralizing activity IC50 [32] was 0.11 nM, the neutralizing activity IC80 [32] was 0.118 nM and the pseudovirus neutralization IC50 [33] was over 67 nM. The pseudovirus neutralization IC80 [33] was over 67 nM, the neutralizing activity IC50 (µg/ml (caption; values match nM)) [34] was over 67 and the neutralizing activity IC80 (µg/ml (caption; values match nM)) [34] was over 67. For the same substance, the neutralization IC50 [35] was 0.019 nM and the neutralization IC80 [35] was 0.065 nM.

Work on AZD3152 (antibody) yielded an IC50, pseudovirus neutralization [1] of 0.549 nM, an IC80, pseudovirus neutralization [1] of 1.39 nM and an IC50, pseudovirus neutralization [2] of 0.329 nM. The IC80, pseudovirus neutralization [2] was 1.04 nM, the IC50, pseudovirus neutralization [3] was 0.163 nM and the IC80, pseudovirus neutralization [3] was 0.459 nM. For the same substance, the IC50, pseudovirus neutralization [4] was 0.0748 nM, the IC80, pseudovirus neutralization [4] was 0.349 nM and the IC50, pseudovirus neutralization [5] was 0.168 nM. The IC80, pseudovirus neutralization [5] was 0.513 nM, the neutralizing activity IC50 (µg/ml (caption; values match nM)) [6] was over 67 and the neutralizing activity IC80 (µg/ml (caption; values match nM)) [6] was over 67. For the same substance, the IC50, pseudovirus neutralization [7] was over 67 nM, the IC80, pseudovirus neutralization [7] was over 67 nM and the IC50, pseudovirus neutralization [8] was 0.0779 nM. For the same substance, the IC80, pseudovirus neutralization [8] was 0.446 nM, the neutralizing activity IC50 (µg/ml (caption; values match nM)) [9] was over 67 and the neutralizing activity IC80 (µg/ml (caption; values match nM)) [9] was over 67. The IC50, pseudovirus neutralization [10] was 0.271 nM, the IC80, pseudovirus neutralization [10] was 0.687 nM and the IC50, pseudovirus neutralization [11] was over 67 nM. It also gave an IC80, pseudovirus neutralization [11] of over 67 nM, a neutralizing activity IC50 (µg/ml (caption; values match nM)) [12] of 5.11 and a neutralizing activity IC80 (µg/ml (caption; values match nM)) [12] of 28. It also gave a neutralizing activity IC80 (µg/ml (caption; values match nM)) [13] of 1.59, a pseudotyped neutralization potency IC50 [13] of 0.501 nM and a pseudotyped neutralization potency IC80 [13] of 1.47 nM. The IC50 (nM), pseudovirus neutralization [14] was over 67 nM, the neutralizing activity IC50 (µg/ml (caption; values match nM)) [15] was over 67 and the neutralizing activity IC80 (µg/ml (caption; values match nM)) [15] was over 67. For the same substance, the IC50 (nM), pseudovirus neutralization [16] was over 67 nM, the IC50, pseudovirus neutralization [17] was 5.11 nM and the IC80, pseudovirus neutralization [17] was 28 nM. The IC50, pseudovirus neutralization [18] was 0.265 nM, the IC80, pseudovirus neutralization [18] was 0.625 nM and the neutralizing activity IC80 (µg/ml (caption; values match nM)) [19] was 2.23. The IC50, pseudovirus neutralization [20] was 0.598 nM, the IC80, pseudovirus neutralization [20] was 2.03 nM and the IC50, pseudovirus neutralization [21] was 0.668 nM. The IC80, pseudovirus neutralization [21] was 1.53 nM, the IC50, pseudovirus neutralization [22] was 0.198 nM and the IC80, pseudovirus neutralization [22] was 0.656 nM. The IC50, pseudovirus neutralization [23] was 0.315 nM, the IC80, pseudovirus neutralization [23] was 0.548 nM and the neutralizing activity IC50 (µg/ml (caption; values match nM)) [24] was over 67. For the same substance, the neutralizing activity IC80 (µg/ml (caption; values match nM)) [24] was over 67, the IC50, pseudovirus neutralization [25] was 0.622 nM and the IC80, pseudovirus neutralization [25] was 1.54 nM. It also gave an IC50, pseudovirus neutralization [26] of 0.135 nM, an IC80, pseudovirus neutralization [26] of 0.359 nM and an IC50, pseudovirus neutralization [27] of 0.109 nM. The IC80, pseudovirus neutralization [27] was 0.355 nM, the neutralizing activity IC50 (µg/ml (caption; values match nM)) [28] was over 67 and the neutralizing activity IC80 (µg/ml (caption; values match nM)) [28] was over 67. It also gave a neutralizing activity IC50 (µg/ml (caption; values match nM)) [29] of over 67, a neutralizing activity IC80 (µg/ml (caption; values match nM)) [29] of over 67 and an IC50, pseudovirus neutralization [30] of 0.301 nM. The IC80, pseudovirus neutralization [30] was 1.59 nM, the IC50, pseudovirus neutralization [31] was over 67 nM and the IC80, pseudovirus neutralization [31] was over 67 nM. The IC50, pseudovirus neutralization [32] was 0.602 nM, the IC80, pseudovirus neutralization [32] was 2.2 nM and the IC50, pseudovirus neutralization [33] was 0.351 nM. The IC80, pseudovirus neutralization [33] was 2.23 nM, the neutralizing activity IC50 (µg/ml (caption; values match nM)) [34] was over 67 and the neutralizing activity IC80 (µg/ml (caption; values match nM)) [34] was over 67. For the same substance, the IC50, pseudotyped neutralization potency [35] was 0.016 nM, the IC50, pseudovirus neutralization [35] was 0.102 nM and the IC80, pseudotyped neutralization potency [35] was 0.032 nM. The IC80, pseudovirus neutralization [35] was 0.623 nM.
